Test results: paper PMC11514449
Like-named read-outs stand apart in the source and are kept apart here.

What was measured:
[1] = target: T1, Dmc1;Mei5-Sae3 complex (Saccharomyces cerevisiae;Saccharomyces cerevisiae) (UniProt P25453+P32489+P89114); assay: smFRET + GFP colocalization; settings: internal Cy3 between T12 and T21
T1 sequence 1: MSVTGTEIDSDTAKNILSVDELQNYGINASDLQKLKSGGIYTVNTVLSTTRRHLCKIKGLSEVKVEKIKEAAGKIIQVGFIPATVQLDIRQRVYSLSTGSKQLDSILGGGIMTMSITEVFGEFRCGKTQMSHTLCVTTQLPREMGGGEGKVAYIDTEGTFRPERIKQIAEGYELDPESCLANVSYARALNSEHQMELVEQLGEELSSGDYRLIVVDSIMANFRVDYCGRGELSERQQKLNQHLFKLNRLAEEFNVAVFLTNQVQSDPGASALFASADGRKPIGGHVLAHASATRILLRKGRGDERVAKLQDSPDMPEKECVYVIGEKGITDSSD
T1 sequence 2: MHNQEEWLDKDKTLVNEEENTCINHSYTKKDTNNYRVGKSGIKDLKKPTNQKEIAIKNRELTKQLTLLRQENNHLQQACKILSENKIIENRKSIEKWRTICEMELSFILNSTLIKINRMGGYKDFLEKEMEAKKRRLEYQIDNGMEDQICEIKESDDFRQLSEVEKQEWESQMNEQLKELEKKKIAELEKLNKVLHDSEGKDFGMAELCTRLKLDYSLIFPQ
T1 sequence 3: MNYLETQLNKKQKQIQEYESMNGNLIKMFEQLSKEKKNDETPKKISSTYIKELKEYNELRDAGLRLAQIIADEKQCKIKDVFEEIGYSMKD

[2] = target: T2, Dmc1 (Saccharomyces cerevisiae) (UniProt P25453); assay: smFRET, RPA displacement; settings: internal Cy3 between T12 and T18
T2 sequence: T1 sequence 1

Dmc1;Mei5-Sae3 complex [3] = target: T3, Dmc1;Mei5-Sae3 complex (Saccharomyces cerevisiae;Saccharomyces …, UniProt P25453;P32489;P89114 1-334;1-222;1-91, |); assay: smFRET
T3 sequence 1: T1 sequence 1
T3 sequence 2: T1 sequence 2
T3 sequence 3: T1 sequence 3

Dmc1 [4] = target: T4, Dmc1 (Saccharomyces cerevisiae, UniProt P25453 1-334); assay: smFRET
T4 sequence: T1 sequence 1

RPA [5] = target: T5, RPA (Saccharomyces cerevisiae, UniProt P22336;P26754;P26755 1-621;1-273;1-122); assay: smFRET
Dmc1 [6] = target: T4, Dmc1; assay: smFRET; remark: listed apart in the source
RPA [7] = target: T5, RPA; assay: EMSA
RPA-GFP (Rfa2-eGFP) = RPA-GFP (Rfa2-eGFP) (Saccharomyces cerevisiae, UniProt P22336;P26754;P26755 1-621;1-273;1-122); assay: EMSA
Dmc1;Mei5-Sae3 complex [8] = target: T3, Dmc1;Mei5-Sae3 complex; assay: nuclease protection

T5 sequence (P22336 whole entry, chain 1 of 3): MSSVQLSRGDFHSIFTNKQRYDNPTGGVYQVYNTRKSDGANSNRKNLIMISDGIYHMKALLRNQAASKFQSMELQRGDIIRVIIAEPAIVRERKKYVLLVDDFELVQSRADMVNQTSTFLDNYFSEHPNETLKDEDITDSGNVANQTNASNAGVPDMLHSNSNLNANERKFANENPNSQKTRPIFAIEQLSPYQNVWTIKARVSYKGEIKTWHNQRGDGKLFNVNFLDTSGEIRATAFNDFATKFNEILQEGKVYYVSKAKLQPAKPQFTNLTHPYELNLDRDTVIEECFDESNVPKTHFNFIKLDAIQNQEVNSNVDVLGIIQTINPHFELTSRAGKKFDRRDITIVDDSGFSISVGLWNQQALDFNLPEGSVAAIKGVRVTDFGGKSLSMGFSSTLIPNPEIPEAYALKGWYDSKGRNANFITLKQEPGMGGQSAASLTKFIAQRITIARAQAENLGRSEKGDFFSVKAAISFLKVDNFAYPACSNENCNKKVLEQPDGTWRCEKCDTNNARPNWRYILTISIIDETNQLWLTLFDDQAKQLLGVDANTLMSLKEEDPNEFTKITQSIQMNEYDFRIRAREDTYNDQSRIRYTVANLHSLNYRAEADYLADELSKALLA
T5 sequence (P26754 whole entry, chain 2 of 3): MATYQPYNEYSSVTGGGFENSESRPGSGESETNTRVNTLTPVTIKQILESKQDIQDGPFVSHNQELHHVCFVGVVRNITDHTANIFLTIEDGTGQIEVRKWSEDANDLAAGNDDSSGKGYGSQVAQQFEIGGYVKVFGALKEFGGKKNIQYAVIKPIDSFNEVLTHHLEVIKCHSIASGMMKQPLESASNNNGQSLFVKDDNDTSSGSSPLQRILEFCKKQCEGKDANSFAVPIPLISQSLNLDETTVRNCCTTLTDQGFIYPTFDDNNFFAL
T5 sequence (P26755 whole entry, chain 3 of 3): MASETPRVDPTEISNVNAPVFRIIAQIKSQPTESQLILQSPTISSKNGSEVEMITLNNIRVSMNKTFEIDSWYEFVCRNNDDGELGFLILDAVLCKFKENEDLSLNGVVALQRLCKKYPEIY
Sequence of RPA-GFP (Rfa2-eGFP) (P22336 whole entry, chain 1 of 3): as the sequence (P22336 whole entry, chain 1 of 3) above
Sequence of RPA-GFP (Rfa2-eGFP) (P26754 whole entry, chain 2 of 3): as the sequence (P26754 whole entry, chain 2 of 3) above
Sequence of RPA-GFP (Rfa2-eGFP) (P26755 whole entry, chain 3 of 3): as the sequence (P26755 whole entry, chain 3 of 3) above

For “TGGCGACGGCAGCGAGGCTTTTTTTTTTTTTTTTTTTTTTTTTTTTTTTTT / GCCTCGCTGCCGTCGCCA [dT12+21]”, which binding signal (% RPA displaced) [1] is on record?
Its binding signal (% RPA displaced) is 50.

For “TGGCGACGGCAGCGAGGCTTTTTTTTTTTTTTTTTTTTTTTTTTTTTT / GCCTCGCTGCCGTCGCCA [dT12+18]”, which Kd [2] is on record?
Its Kd is 1900 nM.

B1: dT13 (mixed)
DNA 1: TGGCGACGGCAGCGAGGCTTTTTTTTTTTTT
DNA 2: GCCTCGCTGCCGTCGCCA
Does B1 bind (Dmc1;Mei5-Sae3 complex [3])?
Result: binds

B2: dT9 (mixed)
DNA 1: TGGCGAGCAGCGAGGCTTTTTTTTT
DNA 2: GCCTCGCTGCCGTCGCCA
Which results are given for B2?
Kd (Dmc1 [4]): 1400 ± 39 nM; binding result (RPA [5]): binds

B3: dT7 (mixed)
DNA 1: TGGCGACGCAGCGAGGCTTTTTTT
DNA 2: GCCTCGCTGCCGTCGCCA
How did the Kd (Dmc1 [6]) turn out when B3 was run?
Its Kd is 1720 ± 77 nM.

B4: Oligo 4 (90-mer) (ssDNA)
DNA: AAATCAATCTAAAGTATATATGAGTAAACTTGGTCTGACAGTTACCAATGCTTAATCAGTGAGGCACCTATCTCAGCGATCTGTCTATTT
Which results are given for B4?
binding result (RPA [7]): binds; binding result (RPA-GFP (Rfa2-eGFP)): binds

B5: Oligo 1 (80-mer) (ssDNA)
DNA: TTATGTTCATTTTTTATATCCTTTACTTTATTTTCTCTGTTTATTCATTTACTTATTTTGTATTATCCTTATCTTATTTA
Does B5 bind (Dmc1;Mei5-Sae3 complex [8])?
Result: binds
